In patent US20230192894A1:

Molecular target: canine FcεRIα on the surface of canine mast cell line HMRC cells (canine)
Assay: flow cytometry, FITC-labelled control on canine mast cell line HMRC

Substance: mouse IgG2b isotype control labeled with FITC (antibody)
- median fluorescence intensity: 1720
